What was measured:
Assay in all cases: purified protein
Assay type in all cases: biochemical, Mycosarcoma maydis
O=CC(O)C(=O)O = details: reduction, cofactor NADH, 40°C, substrate made by enolization of lithium hydroxypyruvate (about 50% conversion, quantified by HPLC)
[1] = tested on: NC(=O)c1ccc[n+]([C@@H]2O[C@H](COP(=O)(O)OP(=O)(O)OC[C@H]3O[C@@H](n4cnc5c(N)ncnc54)[C@H](OP(=O)(O)O)[C@@H]3O)[C@@H](O)[C@H]2O)c1; details: oxidation, co-substrate D-glycerate, 40°C, assay buffer 50 mM glycine pH 8.5, pH 8.5, varied: cofactor
O=C(O)[C@H](O)CO = details: oxidation, 40°C, assay buffer 50 mM glycine pH 8.5, cofactor not stated for this row, pH 8.5
[2] = tested on: NC(=O)C1=CN([C@@H]2O[C@H](COP(=O)(O)OP(=O)(O)OC[C@H]3O[C@@H](n4cnc5c(N)ncnc54)[C@H](O)[C@@H]3O)[C@@H](O)[C@H]2O)C=CC1; details: reduction, co-substrate tartronic semialdehyde, 40°C, varied: cofactor

Substance: rTsr1 (Um02592, tartronate semialdehyde reductase) (Mycosarcoma maydis; E78D)
- Km (O=CC(O)C(=O)O): 190 ± 30 µM
- Vmax (O=CC(O)C(=O)O): 0.17 µmol/min/mg
- Km [1]: 0.30 ± 0.04 µM
- Vmax [1]: 0.93 µmol/min/mg
- Km (O=C(O)[C@H](O)CO): 17700 ± 2300 µM
- Vmax (O=C(O)[C@H](O)CO): 1.14 µmol/min/mg
- Km [2]: 14.29 ± 3.1 µM
- Vmax [2]: 5.07 µmol/min/mg

Reference: publication PMC3031564, “Tartronate Semialdehyde Reductase Defines a Novel Rate-Limiting Step in Assimilation and Bioconversion of Glycerol in Ustilago maydis” (PLoS ONE, 2011)
